Reference: article PMC7171158

Biological target: NusA-AR2^D443C labeled with fluorescein-5-maleimide (E. coli) (UniProt P0AFF6)
Test: fluorescence polarisation; fluorescence anisotropy; 25 nM fluorescein-labeled NusA-AR2^D443C with increasing unlabeled protein; 25 °C; 50 mM Na-P pH 6.5, 100 mM NaCl, 150 mM glucose, 5 mM DTT, 0.05% Tween; two-state binding model

B1: λQ deletion variant lacking 36 residues at the N-terminus (λQ^Δ36) (domain or fragment)
chain: AMGMAQSQAGFGMAAFCGKHELSQNDKQKAINYLMQFAHKVSGKYRGVAKLEGNTKAKVLQVLATFAYADYCRSAATPGARCRDCHGTGRAVDIAKTELWGRVVEKECGRCKGVGYSRMPASAAYRAVTMLIPNLTQPTWSRTVKPLYDALVVQCHKEESIADNILNAVTR
  Kd: 271 µM

B2: antiterminator protein Q from phage λ (λQ), full length (natural protein)
chain: MRLESVAKFHSPKSPMMSDSPRATASDSLSGTDVMAAMGMAQSQAGFGMAAFCGKHELSQNDKQKAINYLMQFAHKVSGKYRGVAKLEGNTKAKVLQVLATFAYADYCRSAATPGARCRDCHGTGRAVDIAKTELWGRVVEKECGRCKGVGYSRMPASAAYRAVTMLIPNLTQPTWSRTVKPLYDALVVQCHKEESIADNILNAVTR
  Kd: 268 µM
